The target in test [1] is T1, CV-A4结构蛋白VP1的1号肽段 (VP1前1-15氨基酸) (Coxsackievirus A4).
T1 construct: Synthetic peptide; also called VP1 1-15
T1 peptide: GDAIADAIQNTVTTT
Briefly: indirect ELISA on coated overlapping VP1 peptides, 7H11E 1μg/ml. (ELISA stands for enzyme-linked immunosorbent assay.)

Test [2] addresses T2, VP1-3A-G (Coxsackievirus A4).
T2 construct: Synthetic single-site mutant peptide; also called VP1 1-15 peptide, position 3 A-G
T2 peptide: GDGIADAIQNTVTTT
Nature of the test: indirect ELISA on coated mutant peptide (- means ELISA negative).

In test [3] the target is T3, VP1-2D-G (Coxsackievirus A4).
T3 construct: Synthetic single-site mutant peptide; also called VP1 1-15 peptide, position 2 D-G
T3 peptide: GGAIADAIQNTVTTT
The description is as above.

Test [4] concerns the target T4, VP1-6D-G (Coxsackievirus A4).
T4 construct: Synthetic single-site mutant peptide; also called VP1 1-15 peptide, position 6 D-G
T4 peptide: GDAIAGAIQNTVTTT
Described as above.

Test [5] concerns the target T5, VP1-4I-G (Coxsackievirus A4).
T5 construct: Synthetic single-site mutant peptide; also called VP1 1-15 peptide, position 4 I-G
T5 peptide: GDAGADAIQNTVTTT
Described as above.

The target in test [6] is T6, VP1-7A-G (Coxsackievirus A4).
T6 construct: Synthetic single-site mutant peptide; also called VP1 1-15 peptide, position 7 A-G
T6 peptide: GDAIADGIQNTVTTT
Nature of the test: indirect ELISA on coated mutant peptide (+ means ELISA positive).

Test [7] concerns the target T7, VP1-14T-G (Coxsackievirus A4).
T7 construct: Synthetic single-site mutant peptide; also called VP1 1-15 peptide, position 14 T-G
T7 peptide: GDAIADAIQNTVTGT
The description is as above.

In test [8] the target is T8, VP1-15T-G (Coxsackievirus A4).
T8 construct: Synthetic single-site mutant peptide; also called VP1 1-15 peptide, position 15 T-G
T8 peptide: GDAIADAIQNTVTTG
The test is described as above.

The target of test [9] is T9, VP1-9Q-G (Coxsackievirus A4).
T9 construct: Synthetic single-site mutant peptide; also called VP1 1-15 peptide, position 9 Q-G
T9 peptide: GDAIADAIGNTVTTT
The description is as above.

Test [10] has as its target T10, VP1-11T-G (Coxsackievirus A4).
T10 construct: Synthetic single-site mutant peptide; also called VP1 1-15 peptide, position 11 T-G
T10 peptide: GDAIADAIQNGVTTT
The description is as above.

In test [11] the target is T11, VP1-5A-G (Coxsackievirus A4).
T11 construct: Synthetic single-site mutant peptide; also called VP1 1-15 peptide, position 5 A-G
T11 peptide: GDAIGDAIQNTVTTT
Described as above.

For test [12], the target named is T12, VP1-8I-G (Coxsackievirus A4).
T12 construct: Synthetic single-site mutant peptide; also called VP1 1-15 peptide, position 8 I-G
T12 peptide: GDAIADAGQNTVTTT
The test is described as above.

The target in test [13] is T13, VP1-10N-G (Coxsackievirus A4).
T13 construct: Synthetic single-site mutant peptide; also called VP1 1-15 peptide, position 10 N-G
T13 peptide: GDAIADAIQGTVTTT
The description is as above.

The target of test [14] is T14, VP1-13T-G (Coxsackievirus A4).
T14 construct: Synthetic single-site mutant peptide; also called VP1 1-15 peptide, position 13 T-G
T14 peptide: GDAIADAIQNTVGTT
The description is as above.

Test [15] deals with T15, VP1-12V-G (Coxsackievirus A4).
T15 construct: Synthetic single-site mutant peptide; also called VP1 1-15 peptide, position 12 V-G
T15 peptide: GDAIADAIQNTGTTT
The description is as above.

B1: 单克隆抗体7H11E (antibody, V domains shown)
VH: SGPGLVAPSQSLSITCTVSGFSLPSYDVHWVRQPPGKGLEWLGVIWAGGSTHYNSALMSRLSISKDNSKSQVFLKMNSLQTDDTAMYYCAGLRAFAMDYWGQGTSVTVSS
VL: PIVLTQSPAILSVSPGERVSFSCRASQSIGTNIHWYQQGANGSPRLLIKYASESISGIPSRFSGSGSGTDFTLSINSVESEDIADYYCQQSNSWPWTFGGGTKLEIQR
notes: Mouse hybridoma antibody purified from ascites, IgG2b subtype; also called 7H11E单克隆抗体
As for B1, the binding result is given as “binds” in test [1]; “no binding” in test [2]; “no binding” in test [3]; “no binding” in [4]; “no binding” in [5]; “binds” in test [6]. In addition, the binding result in test [7], in test [8], in test [9], in test [10], in test [11] and in test [12] was “binds” in each case. The binding result in test [13], in test [14] and in [15] was “binds” each time.

(Values after patent publication CN116239682A (WUHAN INST OF BIOLOGICAL PRODUCTS CO LTD, dated 2023).)
